Measurements: US20260042849

B1: human recombinant MMP2 (R&D Systems, catalog No: 902-MP) (protein)
chain: YNFFPRKPKWDKNQITYRIIGYTPDLDPETVDDAFARAFQVWSDVTPLRFSRIHDGEADIMINFGRWEHGDGYPFDGKDGLLAHAFAPGTGVGGDSHFDDDELWTLGEGQVVRVKYGNADGEYCKFPFLFNGKEYNSCTDTGRSDGFLWCSTTYNFEKDGKYGFCPHEALFTMGGNAEGQPCKFPFRFQGTSYDSCTTEGRTDGYRWCGTTEDYDRDKKYGFCPETAMSTVGGNSEGAPCVFPFTFLGNKYESCTSAGRSDGKMWCATTANYDDDRKWGFCPDQGYSLFLVAAHEFGHAMGLEHSQDPGALMAPIYTYTKNFRLSQDDIKGIQELYGASPDIDLGTGPTPTLGPVTPEICKQDIVFDGIAQIRGEIFFFKDRFIWRTVTPRDKPMGPLLVATFWPELPEKIDAVYEAPQEEKAVFFAGNEYWIYSASTLERGYPKPLTSLGLPPDVQRVDAAFNWSKNKKTYIFAGDKFWRYNEVKKKMDPGFPKLIADAWNAIPDNLDAVVDLQGGGHSYFFKGAYYLKLENQSLKSVKFGSIKSDWLGC
B2: human recombinant MT-SP1 (R&D Systems, catalog No: 3946-SEB) (protein)
chain: VVGGTDADEGEWPWQVSLHALGQGHICGASLISPNWLVSAAHCYIDDRGFRYSDPTQWTAFLGLHDQSQRSAPGVQERRLKRIISHPFFNDFTFDYDIALLELEKPAEYSSMVRPICLPDASHVFPAGKAIWVTGWGHTQYGGTGALILQKGEIRVINQTTCENLLPQQITPRMMCVGFLSGGVDSCQGDSGGPLSSVEADGRIFQAGVVSWGDGCAQRNKPGVYTRLPLFRDWIKENTGV

Legend:
[1] = target: internally quenched peptide probe with CM 7049 (PFGL, SEQ ID NO: 104)
[2] = target: internally quenched peptide probe with CM 7055 (PHGL, SEQ ID NO: 10)
[3] = target: internally quenched peptide probe with CM 7051 (PMGL, SEQ ID NO: 106)
[4] = target: internally quenched peptide probe with CM APMGLKH (SEQ ID NO: 7)
[5] = target: internally quenched peptide probe with CM 7050 (PRGL, SEQ ID NO: 105)
[6] = target: internally quenched peptide probe with CM PMGLK (SEQ ID NO: 64)
[7] = target: internally quenched peptide probe with CM 7047 (PYGL, SEQ ID NO: 103)
[8] = target: internally quenched peptide probe with CM 7053 (PQGL, SEQ ID NO: 9)
[9] = target: internally quenched peptide probe with CM PWGLRS (SEQ ID NO: 181)
[10] = target: internally quenched peptide probe with CM 7052 (PLGL, SEQ ID NO: 107)
[11] = target: internally quenched peptide probe with CM 7054 (PKGL, SEQ ID NO: 108)
[12] = target: internally quenched peptide probe with CM RSPWGL (SEQ ID NO: 182)
[13] = target: internally quenched peptide probe with CM PMGLKS (SEQ ID NO: 5)
[14] = target: internally quenched peptide probe with CM 7041 (PWGL, SEQ ID NO: 100)
[15] = target: internally quenched peptide probe with CM 7056 (PEGL, SEQ ID NO: 11)

Row | Protein | Probe Cleavage (kcat/KM) [4] [M⁻¹ s⁻¹] | Probe Cleavage (pM/s) [4] [pM/s] | Probe Cleavage (kcat/KM) [6] [M⁻¹ s⁻¹] | Probe Cleavage (pM/s) [6] [pM/s] | Probe Cleavage (kcat/KM) [9] [M⁻¹ s⁻¹] | Probe Cleavage (pM/s) [9] [pM/s] | Probe Cleavage (kcat/KM) [12] [M⁻¹ s⁻¹] | Probe Cleavage (pM/s) [12] [pM/s] | Probe Cleavage (kcat/KM) [13] [M⁻¹ s⁻¹] | Probe Cleavage (pM/s) [13] [pM/s] | other results
1 | B1 | 2.7e+06 | 81700 | 180000 | 4690 | 140000 | 3800 | 260000 | 11700 | 8.5e+06 | 119000 | kcat/KM (M^-1 s^-1) [1]: greater than 5×10^2 M^-1 s^-1; stated: cleaved (kcat/Km, M-1s-1, bar on a log axis) [1]: PFGL, MMP2 bar ends between 1x10^3 and 1x10^4; stated: cleaved (kcat/Km, M-1s-1, bar on a log axis) [2]: PHGL, MMP2 bar ends just above the 1x10^4 tick; stated: cleaved (kcat/Km, M-1s-1, bar on a log axis) [3]: PMGL, MMP2 bar ends between 1x10^4 and 1x10^5; stated: cleaved (kcat/Km, M-1s-1, bar on a log axis) [5]: PRGL, MMP2 bar ends between 1x10^4 and 1x10^5; the highest MMP2 bar of the ten peptide probes; kcat/KM (M^-1 s^-1) [7]: greater than 5×10^2 M^-1 s^-1; stated: cleaved (kcat/Km, M-1s-1, bar on a log axis) [7]: PYGL, MMP2 bar ends between 1x10^3 and 1x10^4; stated: cleaved (kcat/Km, M-1s-1, bar on a log axis) [8]: PQGL, MMP2 bar ends between 1x10^4 and 1x10^5; stated: cleaved (kcat/Km, M-1s-1, bar on a log axis) [10]: PLGL, MMP2 bar ends between 1x10^4 and 1x10^5; stated: cleaved (kcat/Km, M-1s-1, bar on a log axis) [11]: PKGL, MMP2 bar ends between 1x10^4 and 1x10^5; stated: cleaved (kcat/Km, M-1s-1, bar on a log axis) [14]: PWGL, MMP2 bar ends between 1x10^3 and 1x10^4; kcat/KM (M^-1 s^-1) [15]: greater than 5×10^2 M^-1 s^-1; stated: cleaved (kcat/Km, M-1s-1, bar on a log axis) [15]: PEGL, MMP2 bar ends between 1x10^3 and 1x10^4
2 | B2 | 77000 | 3330 | 1600 | 46.1 | 31000 | 1230 | 48000 | 2390 | 320000 | 14100 | –
